Results: the supplement of paper PMC9112550, “Optimization of the antimicrobial peptide Bac7 by deep mutational scanning” (BMC Biology, 2022)

Tested on: Escherichia coli TOP10
Test: shrunken log2 fold change of peptide-encoding DNA abundance (4.5 h post-induction vs induction); higher = less antimicrobial activity (less host growth inhibition)
Conditions: time post-induction: 4.5 h; library: site-saturation at positions 5, 18, 19, 20
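Also: peptides expressed intracellularly from a pBAD plasmid library in pooled LB shake-flask culture, induced with 0.3% L-arabinose, DNA abundance read by NGS, three biological replicates, DESeq2 with apeglm shrinkage.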

| Sequence | shrunken log2 fold change |
| --- | --- |
| RRIRDRPPRLPRPRPRPQYIPRP | -0.246 |
| RRIRLRPPRLPRPRPRPVLNPRP | -0.325 |
| RRIRERPPRLPRPRPRPSSCPRP | -0.0232 |
| RRIRMRPPRLPRPRPRPKRSPRP | 2.25 |
| RRIRFRPPRLPRPRPRPTIAPRP | -0.27 |
| RRIRSRPPRLPRPRPRPTYNPRP | -0.765 |
| RRIRQRPPRLPRPRPRPNNCPRP | -0.138 |
| RRIRIRPPRLPRPRPRPYFSPRP | -0.382 |
| RRIRYRPPRLPRPRPRPEQRPRP | -0.067 |
| RRIRFRPPRLPRPRPRPQMYPRP | -0.725 |
| RRIRKRPPRLPRPRPRPGFNPRP | 0.0583 |
| RRIRYRPPRLPRPRPRPEVNPRP | -0.0081 |
| RRIRKRPPRLPRPRPRPDCEPRP | 1.96 |
| RRIRIRPPRLPRPRPRPVMCPRP | 0.062 |
| RRIRARPPRLPRPRPRPNMMPRP | -0.142 |
| RRIRTRPPRLPRPRPRPSLTPRP | -0.452 |
| RRIRDRPPRLPRPRPRPRMSPRP | -0.149 |
| RRIRYRPPRLPRPRPRPSVGPRP | -0.124 |
| RRIRLRPPRLPRPRPRPHCTPRP | -0.533 |
| RRIRDRPPRLPRPRPRPCCKPRP | 0.0846 |
| RRIRSRPPRLPRPRPRPWLAPRP | 0.166 |
| RRIRWRPPRLPRPRPRPWWTPRP | -0.0199 |
| RRIRLRPPRLPRPRPRPPDEPRP | 0.264 |
| RRIRGRPPRLPRPRPRPMVAPRP | 1.17 |
| RRIRFRPPRLPRPRPRPGRFPRP | -0.223 |

| Sequence | shrunken log2 fold change |
| --- | --- |
| RRIRVRPPRLPRPRPRPLNNPRP | -0.733 |
| RRIRCRPPRLPRPRPRPNQHPRP | -0.337 |
| RRIRGRPPRLPRPRPRPYILPRP | -0.614 |
| RRIRLRPPRLPRPRPRPMKAPRP | -0.0274 |
| RRIRVRPPRLPRPRPRPIEGPRP | -0.0117 |
| RRIRARPPRLPRPRPRPRWAPRP | 1.05 |
| RRIRKRPPRLPRPRPRPTRMPRP | 0.651 |
| RRIRCRPPRLPRPRPRPLENPRP | -0.102 |
| RRIRRRPPRLPRPRPRPDNCPRP | -0.113 |
| RRIRQRPPRLPRPRPRPKRQPRP | 0.0299 |
| RRIRTRPPRLPRPRPRPSAPPRP | 0.269 |
| RRIRHRPPRLPRPRPRPGECPRP | -0.377 |
| RRIRWRPPRLPRPRPRPCIDPRP | -0.0447 |
| RRIRKRPPRLPRPRPRPAEVPRP | 0.171 |
| RRIRVRPPRLPRPRPRPKPMPRP | 0.131 |
| RRIRNRPPRLPRPRPRPYPAPRP | 0.0741 |
| RRIRMRPPRLPRPRPRPFVHPRP | -0.178 |
| RRIRARPPRLPRPRPRPGHRPRP | 0.033 |
| RRIRGRPPRLPRPRPRPITGPRP | 0.064 |
| RRIRGRPPRLPRPRPRPGCMPRP | 0.898 |
| RRIRTRPPRLPRPRPRPWRFPRP | -0.0156 |
| RRIRWRPPRLPRPRPRPMYWPRP | 0.0085 |
| RRIRRRPPRLPRPRPRPWFPPRP | -0.44 |
| RRIRKRPPRLPRPRPRPCFGPRP | 0.194 |
| RRIRPRPPRLPRPRPRPVEYPRP | -0.156 |

| Sequence | shrunken log2 fold change |
| --- | --- |
| RRIRLRPPRLPRPRPRPKTMPRP | 0.0334 |
| RRIRARPPRLPRPRPRPCHAPRP | 0.284 |
| RRIRGRPPRLPRPRPRPFAHPRP | 0.162 |
| RRIRQRPPRLPRPRPRPMPIPRP | 0.0245 |
| RRIRMRPPRLPRPRPRPAQVPRP | -0.0213 |
| RRIRSRPPRLPRPRPRPWSAPRP | -0.027 |
| RRIRYRPPRLPRPRPRPAEAPRP | 0.0062 |
| RRIRTRPPRLPRPRPRPNCVPRP | 0.00481 |
| RRIRWRPPRLPRPRPRPQGVPRP | 0.198 |
| RRIRSRPPRLPRPRPRPPSFPRP | 0.0731 |
| RRIRSRPPRLPRPRPRPSNGPRP | -0.0205 |
| RRIRHRPPRLPRPRPRPWMVPRP | -0.0202 |
| RRIRDRPPRLPRPRPRPCDIPRP | -0.11 |
| RRIRPRPPRLPRPRPRPKCKPRP | -0.207 |
| RRIRMRPPRLPRPRPRPTEYPRP | -0.289 |
| RRIRGRPPRLPRPRPRPQIVPRP | 0.12 |
| RRIRFRPPRLPRPRPRPNYYPRP | -0.613 |
| RRIRWRPPRLPRPRPRPERDPRP | 0.128 |
| RRIRQRPPRLPRPRPRPYWWPRP | -0.143 |
| RRIRYRPPRLPRPRPRPYKEPRP | 0.043 |
| RRIRSRPPRLPRPRPRPAGVPRP | 0.0729 |
| RRIRTRPPRLPRPRPRPGEYPRP | -0.194 |
| RRIRWRPPRLPRPRPRPEKCPRP | 0.0983 |
| RRIRQRPPRLPRPRPRPPNTPRP | -0.0954 |
| RRIRCRPPRLPRPRPRPYMPPRP | -0.404 |

| Sequence | shrunken log2 fold change |
| --- | --- |
| RRIRLRPPRLPRPRPRPKAWPRP | -0.0115 |
| RRIRARPPRLPRPRPRPDGPPRP | 0.455 |
| RRIRHRPPRLPRPRPRPMSNPRP | 0.00049 |
| RRIRKRPPRLPRPRPRPQAYPRP | -0.216 |
| RRIRKRPPRLPRPRPRPNTYPRP | 0.0436 |
| RRIRRRPPRLPRPRPRPIDLPRP | -0.115 |
| RRIRHRPPRLPRPRPRPYANPRP | -0.271 |
| RRIRERPPRLPRPRPRPGMEPRP | 0.00479 |
| RRIRKRPPRLPRPRPRPKSHPRP | 0.0104 |
| RRIRCRPPRLPRPRPRPRYNPRP | -0.465 |
| RRIRRRPPRLPRPRPRPIGLPRP | -0.0953 |
| RRIRLRPPRLPRPRPRPFLQPRP | -0.102 |
| RRIRGRPPRLPRPRPRPIHYPRP | -0.242 |
| RRIRCRPPRLPRPRPRPISMPRP | -0.65 |
| RRIRWRPPRLPRPRPRPFVDPRP | 0.0365 |
| RRIRHRPPRLPRPRPRPAMQPRP | 0.325 |
| RRIRHRPPRLPRPRPRPMTIPRP | -0.081 |
| RRIRMRPPRLPRPRPRPQLGPRP | -0.0543 |
| RRIRTRPPRLPRPRPRPWCVPRP | -0.212 |
| RRIRARPPRLPRPRPRPLRNPRP | 0.516 |
| RRIRDRPPRLPRPRPRPDRVPRP | -0.0392 |
| RRIRERPPRLPRPRPRPEQTPRP | 0.111 |
| RRIRMRPPRLPRPRPRPNYTPRP | -0.434 |
| RRIRARPPRLPRPRPRPQERPRP | 0.0703 |
| RRIRARPPRLPRPRPRPYSWPRP | -0.0849 |

| Sequence | shrunken log2 fold change |
| --- | --- |
| RRIRKRPPRLPRPRPRPELGPRP | 0.823 |
| RRIRARPPRLPRPRPRPVWGPRP | 0.383 |
| RRIRIRPPRLPRPRPRPVEWPRP | 0.0101 |
| RRIRGRPPRLPRPRPRPHSQPRP | 0.322 |
| RRIRYRPPRLPRPRPRPTTNPRP | -0.837 |
| RRIRTRPPRLPRPRPRPKKKPRP | -0.125 |
| RRIRSRPPRLPRPRPRPQGKPRP | 0.0304 |
| RRIRNRPPRLPRPRPRPECVPRP | -0.127 |
| RRIRVRPPRLPRPRPRPIQLPRP | -0.174 |
| RRIRLRPPRLPRPRPRPARIPRP | 0.00509 |
| RRIRYRPPRLPRPRPRPAMQPRP | -0.0244 |
| RRIRLRPPRLPRPRPRPMHAPRP | 0.12 |
| RRIRHRPPRLPRPRPRPPTEPRP | 0.159 |
| RRIRQRPPRLPRPRPRPGGPPRP | 0.0535 |
| RRIRERPPRLPRPRPRPQYCPRP | -0.0302 |
| RRIRDRPPRLPRPRPRPRVRPRP | 0.106 |
| RRIRHRPPRLPRPRPRPKLCPRP | -0.114 |
| RRIRSRPPRLPRPRPRPMYDPRP | 0.0313 |
| RRIRQRPPRLPRPRPRPLNAPRP | 0.0127 |
| RRIRPRPPRLPRPRPRPNFYPRP | 0.356 |
| RRIRERPPRLPRPRPRPYIPPRP | -0.416 |
| RRIRMRPPRLPRPRPRPGHPPRP | 0.196 |
| RRIRARPPRLPRPRPRPKVDPRP | -0.0797 |
| RRIRVRPPRLPRPRPRPNQSPRP | 0.00904 |
| RRIRRRPPRLPRPRPRPWTYPRP | -0.0139 |

| Sequence | shrunken log2 fold change |
| --- | --- |
| RRIRARPPRLPRPRPRPLVMPRP | 0.0657 |
| RRIRQRPPRLPRPRPRPVCWPRP | 0.279 |
| RRIRARPPRLPRPRPRPMNSPRP | -0.279 |
| RRIRRRPPRLPRPRPRPVVGPRP | 0.487 |
| RRIRFRPPRLPRPRPRPQTCPRP | -0.31 |
| RRIRIRPPRLPRPRPRPMKQPRP | -0.0367 |
| RRIRKRPPRLPRPRPRPWIPPRP | 0.0372 |
| RRIRSRPPRLPRPRPRPKACPRP | -0.253 |
| RRIRLRPPRLPRPRPRPCIWPRP | -0.21 |
| RRIRSRPPRLPRPRPRPTEVPRP | -0.125 |
| RRIRARPPRLPRPRPRPFIWPRP | 0.00679 |
| RRIRERPPRLPRPRPRPENMPRP | 0.000515 |
| RRIRRRPPRLPRPRPRPYRQPRP | -0.13 |
| RRIRFRPPRLPRPRPRPNEEPRP | -0.0458 |
| RRIRYRPPRLPRPRPRPPDDPRP | 0.141 |
| RRIRTRPPRLPRPRPRPHGPPRP | 0.157 |
| RRIRSRPPRLPRPRPRPYNSPRP | -0.287 |
| RRIRFRPPRLPRPRPRPYEIPRP | -0.241 |
| RRIRDRPPRLPRPRPRPKNTPRP | -0.226 |
| RRIRIRPPRLPRPRPRPEGLPRP | -0.185 |
| RRIRCRPPRLPRPRPRPGIRPRP | -0.107 |
| RRIRPRPPRLPRPRPRPHSDPRP | 0.0137 |
| RRIRERPPRLPRPRPRPHWPPRP | 0.132 |
| RRIRIRPPRLPRPRPRPWAEPRP | -0.167 |
| RRIRPRPPRLPRPRPRPHFEPRP | 0.0605 |
